In patent US20250277023A1 (published 2025):

Assays:
[1] = molecular target: T1, PD-L1 (on CHO-PD-L1 cells) (UniProt Q9NZQ7 19-290); assay: FACS binding; Fig. 24
[2] = molecular target: T1, PD-L1 (on CHO-PD-L1 cells); assay: FACS binding; Fig. 22

T1 sequence (Q9NZQ7 19-290): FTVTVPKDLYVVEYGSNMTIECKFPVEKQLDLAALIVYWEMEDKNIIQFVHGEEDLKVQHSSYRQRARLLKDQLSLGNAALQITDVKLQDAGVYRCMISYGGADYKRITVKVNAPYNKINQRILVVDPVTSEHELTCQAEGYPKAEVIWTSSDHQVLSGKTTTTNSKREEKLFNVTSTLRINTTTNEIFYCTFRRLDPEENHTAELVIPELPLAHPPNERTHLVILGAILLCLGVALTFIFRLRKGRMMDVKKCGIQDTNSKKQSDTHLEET

EC50 [1] | EC50 [2] | Binder
2.29 nM | – | R1083: TIGIT_VH (L45C)_IL15RA/TIGIT_VL(F98C)_IL15/PD-L1-Fab (bispecific antibody) chain 1: QVQLVQSGAEVKKPGSSVKVSCKASGYSFTSYWMNWVRQAPGQGCEWIGMIRPSDSETRLNQMFKDRVTITVDKSTSTAYMELSSLRSEDTAVYYCAGIHDYGHGAYWGQGTLVTVSSGGGGSGGGGSGGGGSGGGGSGITCPPPMSVEHADIWVKSYSLYSRERYICNSGFKRKAGTSSLTECVLNKATNVAHWTTPSLKCIRDPALVHQRPAPPSTVTTAGVTPQPESLSPSGKEPAASSPSSNNTAATTAAIVPGSQLMPSKSPSTGTTEISSHESSHGTPSQTTAKNWELTASASHQPPGVYPQGHSDTTEPKSSDKTHTCPPCPAPELLGGPSVFLFPPKPKDTLMISRTPEVTCVVVDVSHEDPEVKFNWYVDGVEVHNAKTKPREEQYNSTYRVVSVLTVLHQDWLNGKEYKCKVSNKALPAPIEKTISKAKGQPREPQVYTLPPSREEMTKNQVSLTCRVKGFYPSDIAVEWESNGQPENNYKTTPPVLKSDGSFFLASKLTVDKSRWQQGNVFSCSVMHEALHNHYTQKSLSLSPGK chain 2: DIQMTQSPSSLSASVGDRVTITCRASENIYSNLAWYQQKPGKSPKLLVYAASHLPDGVPSRFSGSGSGTDYSLTISSLQPEDFATYYCQHFWGTPRTCGQGTKLEIKGGGGSGGGGSGGGGSGGGGSGNWVNVISDLKKIEDLIQSMHIDATLYTESDVHPSCKVTAMKCFLLELQVISLESGDASIHNTVQDLIILANNSLSSNGNVTESGCKECEELEEKNIKEFLQSFVHIVQMFINTS heavy: QVQLQESGPGLVKPSETLSLTCAVYGDSITSGYWNWIRKPPGKGLEYIGYISYTGSTYQNPSLKSRITMSRDTSKNQYYLKLSSVTAADTAVYYCARSRAWIRTYFDYWGQGTLVTVSSASTKGPSVFPLAPSSKSTSGGTAALGCLVKDYFPEPVTVSWNSGALTSGVHTFPAVLQSSGLYSLSSVVTVPSSSLGTQTYICNVNHKPSNTKVDKRVEPKSCDKTHTCPPCPAPELLGGPSVFLFPPKPKDTLMISRTPEVTCVVVDVSHEDPEVKFNWYVDGVEVHNAKTKPREEQYNSTYRVVSVLTVLHQDWLNGKEYKCKVSNKALPAPIEKTISKAKGQPREPQVYTLPPSREEMTKNQVSLWCLVKGFYPSDIAVEWESNGQPENNYDTTPPVLDSDGSFFLYSDLTVDKSRWQQGNVFSCSVMHEALHNHYTQKSLSLSPGK light: DIQMTQSPSSLSASVGDRVTITCSVSSSISSSNLHWYQQKPGKAPKPWIYGTSNLASGVPSRFSGSGSGTDYTLTISSLQPEDFATYYCQQWSSYPLTFGQGTKLEIKRTVAAPSVFIFPPSDEQLKSGTASVVCLLNNFYPREAKVQWKVDNALQSGNSQESVTEQDSKDSTYSLSSTLTLSKADYEKHKVYACEVTHQGLSSPVTKSFNRGEC
– | 2.95 nM | R1119: TIGIT_VH_IL18R1_D1D2/TIGIT_VL_IL18/PD-L1-Fab (bispecific antibody) chain 1: QVQLVQSGAEVKKPGSSVKVSCKASGYSFTSYWMNWVRQAPGQGLEWIGMIRPSDSETRLNQMFKDRVTITVDKSTSTAYMELSSLRSEDTAVYYCAGIHDYGHGAYWGQGTLVTVSSGGGGSGGGGSGGGGSGGGGSGCTSRPHITVVEGEPFYLKHCSCSLAHEIETTTKSWYKSSGSQEHVELNPRSSSRIALHDCVLEFWPVELNDTGSYFFQMKNYTQKWKLNVIRRNKHSCFTERQVTSKIVEVKKFFQITCENSYYQTLVNSTSLYKNCKKLLLENNKNPTIKKNAEFEDQGYYSCVHFLHHNGKLFNITKTFNITIVEDRSNIVEPKSSDKTHTCPPCPAPELLGGPSVFLFPPKPKDTLMISRTPEVTCVVVDVSHEDPEVKFNWYVDGVEVHNAKTKPREEQYNSTYRVVSVLTVLHQDWLNGKEYKCKVSNKALPAPIEKTISKAKGQPREPQVYTLPPSREEMTKNQVSLTCRVKGFYPSDIAVEWESNGQPENNYKTTPPVLKSDGSFFLASKLTVDKSRWQQGNVFSCSVMHEALHNHYTQKSLSLSPGK chain 2: not shown heavy: EVQLQESGPGLVKPSETLSLTCAVYGDSITSGYWNWIRKPPGKGLEYMGYISYTGSTYQNPSLKSRITFSRDTSKNQYYLKLSSVTAADTATYYCARSRAWIRTYFDYWGQGTLVTVSSASTKGPSVFPLAPSSKSTSGGTAALGCLVKDYFPEPVTVSWNSGALTSGVHTFPAVLQSSGLYSLSSVVTVPSSSLGTQTYICNVNHKPSNTKVDKRVEPKSCDKTHTCPPCPAPELLGGPSVFLFPPKPKDTLMISRTPEVTCVVVDVSHEDPEVKFNWYVDGVEVHNAKTKPREEQYNSTYRVVSVLTVLHQDWLNGKEYKCKVSNKALPAPIEKTISKAKGQPREPQVYTLPPSREEMTKNQVSLWCLVKGFYPSDIAVEWESNGQPENNYDTTPPVLDSDGSFFLYSDLTVDKSRWQQGNVFSCSVMHEALHNHYTQKSLSLSPGK light: EIVLTQSPDFQSVTPKEKVTITCSVSSSISSSNLHWYQQKPDQSPKLLIYGTSNLASGVPSRFSGSGSGTDFTLTINSLEAEDAATYYCQQWSSYPLTFGQGTKLEIKRTVAAPSVFIFPPSDEQLKSGTASVVCLLNNFYPREAKVQWKVDNALQSGNSQESVTEQDSKDSTYSLSSTLTLSKADYEKHKVYACEVTHQGLSSPVTKSFNRGEC

Second part, the binder before the results:

Binder | EC50 [1] | EC50 [2]
R1082: TIGIT_VH (W108C)_IL15RA/TIGIT_VL(S43C)_IL15/PD-L1-Fab (bispecific antibody) chain 1: QVQLVQSGAEVKKPGSSVKVSCKASGYSFTSYWMNWVRQAPGQGLEWIGMIRPSDSETRLNQMFKDRVTITVDKSTSTAYMELSSLRSEDTAVYYCAGIHDYGHGAYCGQGTLVTVSSGGGGSGGGGSGGGGSGGGGSGITCPPPMSVEHADIWVKSYSLYSRERYICNSGFKRKAGTSSLTECVLNKATNVAHWTTPSLKCIRDPALVHQRPAPPSTVTTAGVTPQPESLSPSGKEPAASSPSSNNTAATTAAIVPGSQLMPSKSPSTGTTEISSHESSHGTPSQTTAKNWELTASASHQPPGVYPQGHSDTTEPKSSDKTHTCPPCPAPELLGGPSVFLFPPKPKDTLMISRTPEVTCVVVDVSHEDPEVKFNWYVDGVEVHNAKTKPREEQYNSTYRVVSVLTVLHQDWLNGKEYKCKVSNKALPAPIEKTISKAKGQPREPQVYTLPPSREEMTKNQVSLTCRVKGFYPSDIAVEWESNGQPENNYKTTPPVLKSDGSFFLASKLTVDKSRWQQGNVFSCSVMHEALHNHYTQKSLSLSPGK chain 2: DIQMTQSPSSLSASVGDRVTITCRASENIYSNLAWYQQKPGKCPKLLVYAASHLPDGVPSRFSGSGSGTDYSLTISSLQPEDFATYYCQHFWGTPRTFGQGTKLEIKGGGGSGGGGSGGGGSGGGGSGNWVNVISDLKKIEDLIQSMHIDATLYTESDVHPSCKVTAMKCFLLELQVISLESGDASIHNTVQDLIILANNSLSSNGNVTESGCKECEELEEKNIKEFLQSFVHIVQMFINTS heavy: QVQLQESGPGLVKPSETLSLTCAVYGDSITSGYWNWIRKPPGKGLEYIGYISYTGSTYQNPSLKSRITMSRDTSKNQYYLKLSSVTAADTAVYYCARSRAWIRTYFDYWGQGTLVTVSSASTKGPSVFPLAPSSKSTSGGTAALGCLVKDYFPEPVTVSWNSGALTSGVHTFPAVLQSSGLYSLSSVVTVPSSSLGTQTYICNVNHKPSNTKVDKRVEPKSCDKTHTCPPCPAPELLGGPSVFLFPPKPKDTLMISRTPEVTCVVVDVSHEDPEVKFNWYVDGVEVHNAKTKPREEQYNSTYRVVSVLTVLHQDWLNGKEYKCKVSNKALPAPIEKTISKAKGQPREPQVYTLPPSREEMTKNQVSLWCLVKGFYPSDIAVEWESNGQPENNYDTTPPVLDSDGSFFLYSDLTVDKSRWQQGNVFSCSVMHEALHNHYTQKSLSLSPGK light: DIQMTQSPSSLSASVGDRVTITCSVSSSISSSNLHWYQQKPGKAPKPWIYGTSNLASGVPSRFSGSGSGTDYTLTISSLQPEDFATYYCQQWSSYPLTFGQGTKLEIKRTVAAPSVFIFPPSDEQLKSGTASVVCLLNNFYPREAKVQWKVDNALQSGNSQESVTEQDSKDSTYSLSSTLTLSKADYEKHKVYACEVTHQGLSSPVTKSFNRGEC | 2.78 nM | –
R1124: PD-L1_VH_IL21R/TIGIT_VL_IL21/TIGIT_VH/PD-L1-VL (bispecific antibody) chain 1: not shown chain 2: not shown heavy: QVQLVQSGAEVKKPGSSVKVSCKASGYSFTSYWMNWVRQAPGQGLEWIGMIRPSDSETRLNQMFKDRVTITVDKSTSTAYMELSSLRSEDTAVYYCAGIHDYGHGAYWGQGTLVTVSSASTKGPSVFPLAPSSKSTSGGTAALGCLVKDYFPEPVTVSWNSGALTSGVHTFPAVLQSSGLYSLSSVVTVPSSSLGTQTYICNVNHKPSNTKVDKRVEPKSCDKTHTCPPCPAPELLGGPSVFLFPPKPKDTLMISRTPEVTCVVVDVSHEDPEVKFNWYVDGVEVHNAKTKPREEQYNSTYRVVSVLTVLHQDWLNGKEYKCKVSNKALPAPIEKTISKAKGQPREPQVYTLPPSREEMTKNQVSLWCLVKGFYPSDIAVEWESNGQPENNYDTTPPVLDSDGSFFLYSDLTVDKSRWQQGNVFSCSVMHEALHNHYTQKSLSLSPGK light: EIVLTQSPDFQSVTPKEKVTITCSVSSSISSSNLHWYQQKPDQSPKLLIYGTSNLASGVPSRFSGSGSGTDFTLTINSLEAEDAATYYCQQWSSYPLTFGQGTKLEIKRTVAAPSVFIFPPSDEQLKSGTASVVCLLNNFYPREAKVQWKVDNALQSGNSQESVTEQDSKDSTYSLSSTLTLSKADYEKHKVYACEVTHQGLSSPVTKSFNRGEC | – | 13.7 nM
R0919 (PD-L1 monoclonal antibody) (antibody, V domains shown) VH: EVQLQESGPGLVKPSETLSLTCAVYGDSITSGYWNWIRKPPGKGLEYMGYISYTGSTYQNPSLKSRITFSRDTSKNQYYLKLSSVTAADTATYYCARSRAWIRTYFDYWGQGTLVTVSS VL: EIVLTQSPDFQSVTPKEKVTITCSVSSSISSSNLHWYQQKPDQSPKLLIYGTSNLASGVPSRFSGSGSGTDFTLTINSLEAEDAATYYCQQWSSYPLTFGQGTKLEIK | – | 3.38 nM
